Measurements reported in the supplement of paper PMC12042874.
± gives the uncertainty stated by the source.

test: amyloid nucleation score (Sup35N fusion, yeast selection) (log enrichment); library NNK2; higher = more nucleation; inactive = no reads after selection
How it was run: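 Growth for 7 days at 30°C on medium lacking adenine and uracil followed a 24-hour induction with 100 μM copper sulfate of psi-negative yeast expressing peptides of 20 random codons fused to Sup35N. Input and output plasmid inserts were sequenced with Illumina, and sequences with under 100 input reads were excluded. Nucleation score is the DiMSum log enrichment of output over input reads, centred on the mode score of non-aggregating sequences.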

Substance | amyloid nucleation score
PGSRTWFGTMLAPDTCLHEM | 1.7 ± 0.16
PHDGMHINT | 1.53 ± 0.31
PILEIYVCGSLMYIFNITIV | 6.691 ± 0.033
PINKGKWCSTNFNAGITRI | -0.01 ± 0.61
PIRPVLWVQFVKTQYGPMIP | 4.68 ± 0.098
PISTSLADR | 1.21 ± 0.42
PIYLIC | -0.686 ± 0.28
PLAVGRCGGIAYSVWCTVNL | 5.15 ± 0.078
PLERKRLSHCRWLGRRRLGG | 1 ± 0.34
PLGPNSTYFVWASSWAFYRP | -1.65 ± 0.78
PLILGGGLLWIVC | 0.201 ± 0.74
PLRNGDGVSFLGSVLSWPQA | -0.294 ± 1.1
PLWVEGFMCSNGMCILGRSG | 1.77 ± 0.14
PMCPMSIVLCSATLLLELFV | 5.414 ± 0.037
PMISFSLTMRDNCYSGWLCN | 1.63 ± 0.21
PMKLTILDTNGCNINRAPFS | -1.02 ± 1.1
PMLEFWFMAWIEMFTYKKCC | 1.8 ± 0.53
PMMSIAMCVSSTPLRYFRVR | 2 ± 0.12
PMMWESESYPLIF | -0.268 ± 0.79
PMYRILNSTKESSGFALRGP | -0.952 ± 0.45
PNDHNQLQGPMLSLPPVKQV | -0.359 ± 0.41
PNIKNIT | 2.38 ± 0.24
PNRIFFTLFCLTKYIIPMFM | -1.33 ± 0.75
PPRKTIELCSTQP | 0.7 ± 0.35
PPTTT | 0.621 ± 0.43

Substance | amyloid nucleation score
PQGDSMTVCFQLVT | 1.28 ± 0.61
PQHYVMGYVCWDVSVVLRSP | 2.91 ± 0.092
PQLSKVLGWNYRCVNLSIW | 4.93 ± 0.086
PRGAPNVFDFTLNFSLKQVA | -0.551 ± 0.35
PRGLATRPLFNRVYLHWYLL | -0.639 ± 0.61
PRLKMLRWAGVNQS | -0.011 ± 0.4
PRMRWAVCERP | 4.11 ± 0.096
PRRSNTCWNSCISEMIGIRS | 0.664 ± 0.51
PRSVVPYR | 0.5 ± 0.31
PRVPCTHHMPGW | 0.027 ± 0.65
PRWAKYYVLSRC | -1.6 ± 1.1
PRWKHLTWIP | -0.349 ± 0.64
PSFFCKWKSLYPTVNVCVVN | -0.073 ± 0.49
PSITPLACHHTRCNW | -0.881 ± 0.28
PSLLFFSCV | -0.366 ± 0.56
PSSDRMSKCVFRVRNCQEAL | 0.157 ± 0.55
PTMYWFPPETATSPPYGPPG | 3.54 ± 0.1
PTRDKVATEGHGNGLIYNRF | 0.306 ± 0.65
PVFVLNVLLVILDPFLGLSN | -0.237 ± 0.34
PVGLY | -0.308 ± 0.42
PVPNYCSEII | -1.1 ± 1
PVYPAAYWIVSDGGCNVSWE | -0.789 ± 0.37
PWCTWSFVADLENSYRRWVR | 2.57 ± 0.12
PYFCDIMNGTCRYSLYGFSM | 0.37 ± 0.51
PYLPLRYFCWGSK | -0.249 ± 0.79

Substance | amyloid nucleation score
QAFPDLTVVRACYMHLL | 0.54 ± 0.25
QAHVQILYKL | 5.95 ± 0.054
QARLLSYLGDLVLASSWKVL | -0.891 ± 0.64
QCSIVWR | 6.61 ± 0.076
QCYAMSSLMMLYLFFLWGCG | -1.05 ± 0.55
QDGFRMYVLFDYNQCREFCS | 1.23 ± 0.26
QDLVGGCQLSHHHCNLSCGF | inactive
QDNRYPLFVLSTLLSLIFLL | inactive
QEVRSF | 0.6 ± 0.66
QFAHFKNLWVFVLSCRWLPT | -0.158 ± 0.35
QFDTPNTT | -0.169 ± 0.54
QFFMWTGGH | 2.84 ± 0.1
QFHFWMQRMMFPLEFVIWVW | 1.33 ± 0.34
QFILFCIPTPNQ | 4.93 ± 0.08
QFRTIHAHYNFFG | 7.68 ± 0.048
QGLSCEGILWLVEYSQTFFG | -1.27 ± 1.1
QGVDNGDRGRGRNLWASMRR | 1.34 ± 0.39
QGYLLFN | 0.467 ± 0.19
QICHHIDYVFRCHDI | 0.585 ± 0.8
QIFFWSSFN | inactive
QIHGVTFFSQRTGTCASEP | -0.875 ± 0.44
QKACWNPGQRLLVTDLHYQP | 0.27 ± 0.64
QLALLMFMQTFNSYS | 7.43 ± 0.059
QLFAVQSLCRKRRQLRWLPT | 0.463 ± 0.64
QLHIWVVIRYPLYLINKTVW | 0.436 ± 0.8

Substance | amyloid nucleation score
QLTRTVIYCLLFSAFHFYIS | 2.39 ± 0.22
QLVFYSNFVSKDVNVDLQWL | 5.75 ± 0.062
QLVGSLGGAQGTAGRYRYTG | 0.658 ± 0.51
QLYLTVTNGFVRCTTASDVL | 1.14 ± 0.47
QMISLYAKQGVFPFGLSCSC | 2.02 ± 0.11
QMLDTRSLGNDYNYNVYSLA | -1.41 ± 0.39
QNCQFGMH | 0.88 ± 0.48
QNFNILIGRGDVY | 1.6 ± 0.23
QRDDVISRCVYHYFKVVPGA | -0.183 ± 0.55
QRGFLRVPSLWCSFCLH | -0.176 ± 1.1
QRGRGERMFITQCLVDRMCF | -0.117 ± 0.31
QRMTNMSF | -1.27 ± 1
QRQDDSVFHDVSHLGQGSSK | 9.066 ± 0.078
QRVFDLKSGFGLNRDILVCL | inactive
QSAFSKF | inactive
QSAVICVGRCGNCHPPTEL | 2.87 ± 0.1
QSLIDSVHVALHKLLRRYVK | -0.232 ± 0.65
QSRSYFRRGVTSCLHPGWET | 0.452 ± 0.53
QSTSQLRLYELSR | -0.206 ± 1.1
QTGCSITFLKFGRSAVSTVK | 0.378 ± 0.27
QTMVCTTISAPKSGSAWERS | 0.109 ± 0.37
QVCRDDYEVDFLGCGCPRGH | -0.588 ± 0.44
QVFRFSYKCPCHAVG | 1.75 ± 0.15
QVGKQADFRVAWLRVIHVF | 0.292 ± 0.56
QVIFI | inactive

Substance | amyloid nucleation score
QVLIIPLWKNGLRTIIRWL | 0.106 ± 1
QVPGYIAQSKML | 0.407 ± 0.43
QVSDVRDLNFWISVTHVEVG | 3.4 ± 0.12
QWCLSNNVLWEMGVW | inactive
QWIAGVYV | 3.23 ± 0.048
QYRFFVYKLRRQIIYV | -0.191 ± 1.1
QYWQYWSWIGCVCLLCGWRF | 0.91 ± 0.26
RAANLSLHSNGDTGGESVSD | inactive
RAKTNSVGDLQYGIHVPMKG | -0.043 ± 0.37
RARFHFVKTCSTQRSMPHMG | 3.21 ± 0.073
RAVEEYAVPS | 0.878 ± 0.35
RAYCAYTLR | 5.94 ± 0.071
RCEFFGVGMSREKNMGCSKC | 0.875 ± 0.47
RCEFSACMCGVCGAYKCMRF | 5.3 ± 0.064
RCFSTHVAQDQLFVY | inactive
RCKIRSLFSNLYPDSVFTLT | inactive
RCKYWNTKCTTIYRGRVSYL | -0.733 ± 0.29
RCLTELTNETNYVGAG | 0.405 ± 0.3
RCPGCDE | 1.26 ± 0.25
RDNRSLTELLNRTMVHFVIM | inactive
RDVRQVQRWSYCWRARTRSA | 1.19 ± 0.25
REAAVHRLIAWIGFRCRCQV | -0.317 ± 1.1
RECFGGVQYRVRFSKFPYES | -0.663 ± 0.5
REDGSPVGLLGGDHWVDFAQ | 1.38 ± 0.19
REEYCSFTICWSLDALHDRG | 0.527 ± 0.65

Substance | amyloid nucleation score
REFDRNFTPYPSQQELPIWW | 0.827 ± 0.39
REFLMD | inactive
REGVQVIQTGLVEYKLG | -0.029 ± 0.79
REIARGRMYLGSPGLVDIVA | -0.232 ± 0.76
REQYPYINQHRP | 2.52 ± 0.14
RERDNVMDIVGSAMRDCCQF | 0.282 ± 0.25
RESTTRMSAGNVYRVTHKHS | 0.224 ± 0.4
REWWYKKALPQCENTIGVGQ | 0.721 ± 0.47
RFCWICCHVQFFYELHITHA | inactive
RFFYYVVTLDAFNTFHKHLG | -1.56 ± 1.1
RFGNCGVTMTRSAGRFRAIS | -0.169 ± 0.29
RFGVSVTGDTSRCSGCGGAH | 4.01 ± 0.089
RFHRYTILLLLTPEWTEHAI | 0.52 ± 0.57
RFIND | -0.703 ± 1
RFKLEYHEEG | 2.81 ± 0.19
RFNWFFRHV | 0.524 ± 0.81
RFNYEP | 0.262 ± 0.46
RFRFGAVNLV | 0.849 ± 0.49
RFRHGNDYGSYYFCGLLGSM | 0.264 ± 0.46
RFRLWIVCG | -0.253 ± 0.26
RFTESYSL | -0.935 ± 0.48
RGLAES | -0.2 ± 0.24
RGNMESLWQNRKGRCSLNHG | inactive
RGRCFWLEFTFISWLSNDVA | inactive
RGRHGASMELESVDKRTVSR | 0.656 ± 0.34

Substance | amyloid nucleation score
RGRLMCSYLILNFCRSG | 3.04 ± 0.12
RGSGKCYRAGFMIAIVTHPL | 1.5 ± 0.41
RGSRNNQVWGQSFFMPQWTA | -0.405 ± 0.41
RGVFAMLTVSYGNS | 5.483 ± 0.043
RGWLRFMEQNGTYSEYDVDL | 12.82 ± 0.022
RGYVRLSHTGTTRHHP | inactive
RHLDSDPRIRKPHFGDPVNT | -0.144 ± 0.55
RHLISSLRELHTTLNLHRPE | 0.101 ± 0.76
RHLVIYRLVNCKSARLSRTL | inactive
RHQYETKYRPYRVIPLQRMV | 0.277 ± 0.46
RHSLYVFY | 1.69 ± 0.33
RHTSNTIIDELFLDSMGWHN | 9.016 ± 0.05
RHVMSR | 0.419 ± 0.23
RIFLYND | inactive
RIFQLSTSGN | 0.072 ± 1.1
RIFRYNDTVLCVLLGTNVGD | -0.418 ± 1.1
RIISCRN | 0.331 ± 0.43
RILTVYVPV | 1.19 ± 0.39
RILYLTTDGRKLM | inactive
RIMIEFWPRFSWSI | 0.744 ± 0.14
RIMIIGKYVSRMVFGDSFWG | 6.002 ± 0.049
RIPHHWMSVGLVIAPRLKSV | -0.365 ± 0.63
RIVIFFFTCIYPIWIRNTWP | -1.18 ± 1.1
